According to article PMC10200994, “A family-wide assessment of latent STAT transcription factor interactions reveals divergent dimer repertoires” (The Journal of Biological Chemistry, 2023):

B1: STAT5A (unphosphorylated, wild-type), fluorophore fusion (natural protein, UniProt P42229 1-794, looked up)
chain: MAGWIQAQQLQGDALRQMQVLYGQHFPIEVRHYLAQWIESQPWDAIDLDNPQDRAQATQLLEGLVQELQKKAEHQVGEDGFLLKIKLGHYATQLQKTYDRCPLELVRCIRHILYNEQRLVREANNCSSPAGILVDAMSQKHLQINQTFEELRLVTQDTENELKKLQQTQEYFIIQYQESLRIQAQFAQLAQLSPQERLSRETALQQKQVSLEAWLQREAQTLQQYRVELAEKHQKTLQLLRKQQTIILDDELIQWKRRQQLAGNGGPPEGSLDVLQSWCEKLAEIIWQNRQQIRRAEHLCQQLPIPGPVEEMLAEVNATITDIISALVTSTFIIEKQPPQVLKTQTKFAATVRLLVGGKLNVHMNPPQVKATIISEQQAKSLLKNENTRNECSGEILNNCCVMEYHQATGTLSAHFRNMSLKRIKRADRRGAESVTEEKFTVLFESQFSVGSNELVFQVKTLSLPVVVIVHGSQDHNATATVLWDNAFAEPGRVPFAVPDKVLWPQLCEALNMKFKAEVQSNRGLTKENLVFLAQKLFNNSSSHLEDYSGLSVSWSQFNRENLPGWNYTFWQWFDGVMEVLKKHHKPHWNDGAILGFVNKQQAHDLLINKPDGTFLLRFSDSEIGGITIAWKFDSPERNLWNLKPFTTRDFSIRSLADRLGDLSYLIYVFPDRPKDEVFSKYYTPVLAKAVDGYVKPQIKQVVPEFVNASADAGGSSATYMDQAPSPAVCPQAPYNMYPQNPDHVLDQDGEFDLDETMDVARHVEELLRRPMDSLDSRLSPPAGLFTSARGSLS
notes: STAT5A, full-length wild type; One molecule for bait and test copies; also called U-STAT5A; STAT5A-NES; source: HeLa, transiently transfected, in cells; not shown: mCherry (test copy) or mEGFP (bait copy), C-terminal, kept

Legend:
Experiment in all cases: co-localization assay (relocalisation of a test protein by a compartment-targeted bait, fluorescence microscopy); HeLa cells co-expressing bait (STAT-NES or STAT-NLS, or wild-type STAT2 with its own export activity; green) and test protein without heterologous signal (red); no cytokine; fixed 20 h after transfection; Pearson correlation coefficient rP in cells with equimolar to 4-fold excess of bait
[1] = target: B1; details: partners not purified
[2] = target: the molecule itself
[3] = target: T1, STAT2 (unphosphorylated, wild-type), fluorophore fusion (UniProt P52630 1-851); details: partners not purified
T1 construct: STAT2, full-length wild type; used as bait through its own nuclear export activity; No heterologous NES or NLS on wild-type STAT2; also called U-STAT2; S2; source: HeLa, transiently transfected, in cells; not shown: mEGFP or mCherry, C-terminal, kept
T1 sequence (P52630 whole entry, the tested form may be a part): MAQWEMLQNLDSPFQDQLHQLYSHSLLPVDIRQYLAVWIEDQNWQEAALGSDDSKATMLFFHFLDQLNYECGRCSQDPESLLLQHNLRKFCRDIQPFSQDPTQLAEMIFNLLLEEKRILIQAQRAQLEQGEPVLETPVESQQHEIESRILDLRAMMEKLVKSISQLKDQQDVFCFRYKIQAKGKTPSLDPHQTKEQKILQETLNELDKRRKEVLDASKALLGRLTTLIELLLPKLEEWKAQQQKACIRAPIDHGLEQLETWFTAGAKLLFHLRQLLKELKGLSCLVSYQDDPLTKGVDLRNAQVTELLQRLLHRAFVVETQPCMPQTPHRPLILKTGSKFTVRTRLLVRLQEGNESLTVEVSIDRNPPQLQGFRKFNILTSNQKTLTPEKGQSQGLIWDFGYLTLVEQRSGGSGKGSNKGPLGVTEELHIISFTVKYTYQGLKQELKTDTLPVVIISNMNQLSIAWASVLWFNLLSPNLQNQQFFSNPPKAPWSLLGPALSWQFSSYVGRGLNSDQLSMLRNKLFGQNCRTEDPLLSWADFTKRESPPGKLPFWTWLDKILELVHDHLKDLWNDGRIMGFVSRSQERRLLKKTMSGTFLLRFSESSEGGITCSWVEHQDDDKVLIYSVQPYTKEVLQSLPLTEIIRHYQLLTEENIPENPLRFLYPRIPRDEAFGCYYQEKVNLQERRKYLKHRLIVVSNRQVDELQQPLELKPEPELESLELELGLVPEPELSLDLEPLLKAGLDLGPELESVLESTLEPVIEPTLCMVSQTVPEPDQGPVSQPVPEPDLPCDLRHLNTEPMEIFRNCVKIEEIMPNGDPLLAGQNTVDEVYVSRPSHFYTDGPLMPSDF

Binder | Pearson correlation coefficient rP (co-localization) [1] | Pearson correlation coefficient rP (co-localization) [2] | Pearson correlation coefficient rP (co-localization) [3]
STAT5B (unphosphorylated, wild-type), fluorophore fusion (natural protein, UniProt P51692 1-787, looked up, STAT5B, full-length wild type; One molecule for bait and test copies; also called U-STAT5B; STAT5B-NES; source: HeLa, transiently transfected, in cells; not shown: mCherry (test copy) or mEGFP (bait copy), C-terminal, kept) MAVWIQAQQLQGEALHQMQALYGQHFPIEVRHYLSQWIESQAWDSVDLDNPQENIKATQLLEGLVQELQKKAEHQVGEDGFLLKIKLGHYATQLQNTYDRCPMELVRCIRHILYNEQRLVREANNGSSPAGSLADAMSQKHLQINQTFEELRLVTQDTENELKKLQQTQEYFIIQYQESLRIQAQFGPLAQLSPQERLSRETALQQKQVSLEAWLQREAQTLQQYRVELAEKHQKTLQLLRKQQTIILDDELIQWKRRQQLAGNGGPPEGSLDVLQSWCEKLAEIIWQNRQQIRRAEHLCQQLPIPGPVEEMLAEVNATITDIISALVTSTFIIEKQPPQVLKTQTKFAATVRLLVGGKLNVHMNPPQVKATIISEQQAKSLLKNENTRNDYSGEILNNCCVMEYHQATGTLSAHFRNMSLKRIKRSDRRGAESVTEEKFTILFESQFSVGGNELVFQVKTLSLPVVVIVHGSQDNNATATVLWDNAFAEPGRVPFAVPDKVLWPQLCEALNMKFKAEVQSNRGLTKENLVFLAQKLFNNSSSHLEDYSGLSVSWSQFNRENLPGRNYTFWQWFDGVMEVLKKHLKPHWNDGAILGFVNKQQAHDLLINKPDGTFLLRFSDSEIGGITIAWKFDSQERMFWNLMPFTTRDFSIRSLADRLGDLNYLIYVFPDRPKDEVYSKYYTPVPCESATAKAVDGYVKPQIKQVVPEFVNASADAGGGSATYMDQAPSPAVCPQAHYNMYPQNPDSVLDTDGDFDLEDTMDVARRVEELLGRPMDSQWIPHAQS | 0.97 | ≥ 0.94 | 
B1 |  | ≥ 0.94 | 
STAT1 (unphosphorylated, wild-type), fluorophore fusion (natural protein, UniProt P42224 1-750, looked up, STAT1, full-length wild type; One molecule for bait and test copies; Three to five further heterologous residues flank the NES or NLS; cloning details only on request; also called U-STAT1; S1; source: HeLa, transiently transfected, in cells; not shown: mCherry (test copy) or mEGFP (bait copy), C-terminal, kept) MSQWYELQQLDSKFLEQVHQLYDDSFPMEIRQYLAQWLEKQDWEHAANDVSFATIRFHDLLSQLDDQYSRFSLENNFLLQHNIRKSKRNLQDNFQEDPIQMSMIIYSCLKEERKILENAQRFNQAQSGNIQSTVMLDKQKELDSKVRNVKDKVMCIEHEIKSLEDLQDEYDFKCKTLQNREHETNGVAKSDQKQEQLLLKKMYLMLDNKRKEVVHKIIELLNVTELTQNALINDELVEWKRRQQSACIGGPPNACLDQLQNWFTIVAESLQQVRQQLKKLEELEQKYTYEHDPITKNKQVLWDRTFSLFQQLIQSSFVVERQPCMPTHPQRPLVLKTGVQFTVKLRLLVKLQELNYNLKVKVLFDKDVNERNTVKGFRKFNILGTHTKVMNMEESTNGSLAAEFRHLQLKEQKNAGTRTNEGPLIVTEELHSLSFETQLCQPGLVIDLETTSLPVVVISNVSQLPSGWASILWYNMLVAEPRNLSFFLTPPCARWAQLSEVLSWQFSSVTKRGLNVDQLNMLGEKLLGPNASPDGLIPWTRFCKENINDKNFPFWLWIESILELIKKHLLPLWNDGCIMGFISKERERALLKDQQPGTFLLRFSESSREGAITFTWVERSQNGGEPDFHAVEPYTKKELSAVTFPDIIRNYKVMAAENIPENPLKYLYPNIDKDHAFGKYYSRPKEAPEPMELDGPKGTGYIKTELISVSEVHPSRLQTTDNLLPMSPEEFDEVSRIVGSVEFDSMMNTV |  |  | 0.97
STAT4 (unphosphorylated, wild-type), fluorophore fusion (natural protein, UniProt Q14765 1-748, looked up, STAT4, full-length wild type; One molecule for bait and test copies; also called U-STAT4; STAT4-NES; source: HeLa, transiently transfected, in cells; not shown: mCherry (test copy) or mEGFP (bait copy), C-terminal, kept) MSQWNQVQQLEIKFLEQVDQFYDDNFPMEIRHLLAQWIENQDWEAASNNETMATILLQNLLIQLDEQLGRVSKEKNLLLIHNLKRIRKVLQGKFHGNPMHVAVVISNCLREERRILAAANMPVQGPLEKSLQSSSVSERQRNVEHKVAAIKNSVQMTEQDTKYLEDLQDEFDYRYKTIQTMDQSDKNSAMVNQEVLTLQEMLNSLDFKRKEALSKMTQIIHETDLLMNTMLIEELQDWKRRQQIACIGGPLHNGLDQLQNCFTLLAESLFQLRRQLEKLEEQSTKMTYEGDPIPMQRTHMLERVTFLIYNLFKNSFVVERQPCMPTHPQRPLVLKTLIQFTVKLRLLIKLPELNYQVKVKASIDKNVSTLSNRRFVLCGTNVKAMSIEESSNGSLSVEFRHLQPKEMKSSAGGKGNEGCHMVTEELHSITFETQICLYGLTIDLETSSLPVVMISNVSQLPNAWASIIWYNVSTNDSQNLVFFNNPPPATLSQLLEVMSWQFSSYVGRGLNSDQLHMLAEKLTVQSSYSDGHLTWAKFCKEHLPGKSFTFWTWLEAILDLIKKHILPLWIDGYVMGFVSKEKERLLLKDKMPGTFLLRFSESHLGGITFTWVDHSESGEVRFHSVEPYNKGRLSALPFADILRDYKVIMAENIPENPLKYLYPDIPKDKAFGKHYSSQPCEVSRPTERGDKGYVPSVFIPISTIRSDSTEPHSPSDLLPMSPSVYAVLRENLSPTTIETAMKSPYSAE |  | ≥ 0.94 | 
